Measured values as given in the MegaScale stability set (Tsuboyama et al. 2023).

B1: EHEE_rd2_0601 (parent)
chain: TYTYKLTDEEASRRAEDEWRNRGYDVRVRNNNGTWEVEVR

Variants of: B1
Assay: folding stability dG (cDNA display proteolysis); higher = more stable
Conditions: PBS, room temperature

Folding stability dG [kcal/mol], by site and new letter:
R29: P -0.71; N 1.17; A 0.917; M 1.26; K 1.35; E 0.726; C 1.06; G 0.418; F 1.63; Q 1.18; I 1.78; D 0.413; S 1.55; L 1.4; H 1.49
R20: A 0.541; L 0.904; N 0.373; Q 0.446; F 0.22; M 0.619; E -0.108; W -0.078; K 1.32; V 0.659; S 0.589; H 0.444; I 0.853; Y 0.246; G 0.028; T 0.945
R22: V -0.052; D -0.181; S 0.439; W 0.762; L 1.46; A 1.22; K 1.45; Q 0.939; I 0.421; Y 0.488; F 0.44; T -0.242; G 0.192; H 0.666; N 0.518; C 1.03; E 0.251; M 1.29
W19: I -0.516; M 0.446; F 1.04; E -0.502; A 0.133; L 0.884; H -0.397; N -0.826; Y 0.78
E18: S 1.25; V 1.56; L 2.04; R 1.31; T 1.35; N 1.03; W 2.44; M 2.03; Y 3.02; Q 1.36
Y24: H 0.447; L 0.28; W 0.791; I -0.012; C 1.21; M 0.281; R -0.49; F 1.51; Q -0.84; N -0.731; K -0.577; V 0.003; A 0.049; T -0.625
R27: T 2.03; L 1.68; Q 1.56; G 0.575; F 1.67; A 1.42; S 1.69; W 1.27; N 1.36; D 1.07; K 1.6; I 2.09; V 2.05; H 1.56; M 1.49; E 1.6; Y 1.52; C 1.69; P -0.472
N21: F 1.04; D 1.16; W 0.672; E 1.34; S 1.82; G 1.42; H 1.24; Q 1.65; T 1.31; I 1.22; M 1.58; Y 0.831; L 1.65; A 1.82; K 1.97; V 1.1; R 1.96
D25: V 1.52; P 0.219; W 1.53; L 1.48; H 1.56; I 1.76; T 1.46; S 1.3; E 1.82; A 1.25; Y 1.27; M 1.36; R 1.23; F 1.35; N 1.3; G 0.602; Q 1.64; K 1.16
V26: T 0.439; A 0.393; I 0.319; F -0.688; P -0.384
V28: L 0.62; G -0.651; F 0.162; C 0.766; T 0.683; N -0.678; M 0.531; R 1.38; Y 0.207; H -0.199; I 1.44; Q -0.695; K -0.078; W 0.13; D -0.612; S 0.536; A 0.322
G23: H -0.048; C 1.14; Y -0.588; M -0.97; N -0.169; W -0.693; F -0.542; Q -0.624; K -0.509
